Assays:
Test in all cases: cell-based or functional assay
[1] = biological target: T1, human oxytocin receptor (human), P30559
T1 chain: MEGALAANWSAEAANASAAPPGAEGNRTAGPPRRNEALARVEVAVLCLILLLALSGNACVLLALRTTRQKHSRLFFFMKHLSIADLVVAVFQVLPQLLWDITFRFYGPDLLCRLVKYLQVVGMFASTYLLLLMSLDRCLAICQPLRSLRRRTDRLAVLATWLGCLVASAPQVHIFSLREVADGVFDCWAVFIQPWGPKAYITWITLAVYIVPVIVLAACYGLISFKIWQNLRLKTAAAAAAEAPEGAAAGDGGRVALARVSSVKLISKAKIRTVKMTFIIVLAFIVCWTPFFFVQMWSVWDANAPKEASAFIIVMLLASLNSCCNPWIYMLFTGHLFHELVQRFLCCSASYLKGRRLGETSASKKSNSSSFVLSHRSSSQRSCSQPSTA

[2] = biological target: human vasopressin V1a receptor (human), P37288
Sequence of human vasopressin V1a receptor (human), P37288 (P37288 whole entry): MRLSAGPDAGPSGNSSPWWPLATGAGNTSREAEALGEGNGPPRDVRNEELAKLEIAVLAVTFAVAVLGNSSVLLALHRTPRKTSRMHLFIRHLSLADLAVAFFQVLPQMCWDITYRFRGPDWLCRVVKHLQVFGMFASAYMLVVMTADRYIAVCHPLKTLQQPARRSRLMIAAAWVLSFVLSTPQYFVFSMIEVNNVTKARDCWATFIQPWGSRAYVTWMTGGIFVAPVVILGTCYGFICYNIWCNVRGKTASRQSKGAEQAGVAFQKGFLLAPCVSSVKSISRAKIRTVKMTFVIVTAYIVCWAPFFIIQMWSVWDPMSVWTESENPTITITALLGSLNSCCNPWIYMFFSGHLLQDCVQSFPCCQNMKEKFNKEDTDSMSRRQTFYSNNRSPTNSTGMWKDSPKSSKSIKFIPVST

[3] = biological target: T2, human vasopressin V1b receptor (human), P47901
T2 chain: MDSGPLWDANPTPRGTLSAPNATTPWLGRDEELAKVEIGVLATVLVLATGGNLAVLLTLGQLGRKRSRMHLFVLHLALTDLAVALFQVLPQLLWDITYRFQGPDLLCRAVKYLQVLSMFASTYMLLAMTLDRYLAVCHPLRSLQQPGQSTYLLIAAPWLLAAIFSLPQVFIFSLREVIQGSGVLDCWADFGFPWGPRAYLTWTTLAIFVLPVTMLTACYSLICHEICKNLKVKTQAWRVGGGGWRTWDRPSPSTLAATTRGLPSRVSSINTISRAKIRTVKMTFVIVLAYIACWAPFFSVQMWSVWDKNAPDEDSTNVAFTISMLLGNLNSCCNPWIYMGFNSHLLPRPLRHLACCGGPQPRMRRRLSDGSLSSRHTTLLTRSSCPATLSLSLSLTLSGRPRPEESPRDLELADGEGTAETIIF

[4] = biological target: human vasopressin V2 receptor (human), P30518

B1: d[C1,6U]-OT (peptide)
chain: UYIQNUPLG
modifications: not fully specified; modifications not checked
Q: Which EC50, IP-One HTRF assay [1] does the source give for B1 here?
A: 400 nM

Q: What about the Emax, FLIPR calcium assay [1] of the same binder?
A: 89%

Q: And the Emax, IP-One HTRF assay [1]?
A: 72%

Q: And the Emax, FLIPR calcium assay [2]?
A: 100%

Q: What about the Emax, FLIPR calcium assay [3] of the same binder?
A: 92%

Q: What about the Emax, IP-One HTRF assay [3] of the same binder?
A: 96%

Q: What about the Emax, cAMP accumulation assay [4] of the same binder?
A: 134%
